B1: His6-Sso2 (cytosolic domain, a.a. 1–270) [yeast] / GST-tagged Sec9 C-terminal SNARE domain (a.a. 414–651) [yeast] (parent)
chain 1: MSNANPYENNNPYAENYEMQEDLNNAPTGHSDGSDDFVAFMNKINSINANLSRYENIINQIDAQHKDLLTQVSEEQEMELRRSLDDYISQATDLQYQLKADIKDAQRDGLHDSNKQAQAENCRQKFLKLIQDYRIIDSNYKEESKEQAKRQYTIIQPEATDEEVEAAINDVNGQQIFSQALLNANRRGEAKTALAEVQARHQELLKLEKTMAELTQLFNDMEELVIEQQENVDVIDKNVEDAQQDVEQGVGHTNKAVKSARKARKNKIRC
chain 2: EEARQQQEEDEAVDEIKQEIKFTKQSSVASTRNTLKMAQDAERAGMNTLGMLGHQSEQLNNVEGNLDLMKVQNKVADEKVAELKKLNRSILAVHVSNPFNSKRRRREREEQLKNRKIEEKLMREQTSQQLSQSTQRIEGAMNANNNISEVRERYQRKNVLEKAKRYQFENDEEDDEMELEIDRNLDQIQQVSNRLKKMALTTGKELDSQQKRLNNIEESTDDLDINLHMNTNRLAGIR

Variants of: B1
Assay: GST pull-down time course (SDS-PAGE, Coomassie blue staining, band quantification)
Conditions: with GST-tagged Sec9 C-terminal SNARE domain (a.a. 414–651) [yeast]; time point 5 min; parent: 0; read off a plot

Row | response | Variant
1 | 34% | chain 1 D170G V171S N172S Q174G

Same assay, conditions: with GST-tagged Sec9 C-terminal SNARE domain (a.a. 414–651) [yeast]; time point 10 min; parent: 9; read off a plot

Row | response | Variant
2 | 67% | chain 1 D170G V171S N172S Q174G

Same assay, conditions: with GST-tagged Sec9 C-terminal SNARE domain (a.a. 414–651) [yeast]; time point 20 min; parent: 32; read off a plot

Row | response | Variant
3 | 79% | chain 1 D170G V171S N172S Q174G

Same assay, conditions: with GST-tagged Sec9 C-terminal SNARE domain (a.a. 414–651) [yeast]; time point 40 min; parent: 29; read off a plot

Row | response | Variant
4 | 100% | chain 1 D170G V171S N172S Q174G

Same assay, conditions: with GST-tagged Sec9 C-terminal SNARE domain (a.a. 414–651) [yeast]; time point 70 min; parent: 48; read off a plot

Row | response | Variant
5 | 92% | chain 1 D170G V171S N172S Q174G

Same assay, conditions: with GST-tagged Sec9 C-terminal SNARE domain (a.a. 414–651) [yeast]; time point 110 min; parent: 72; read off a plot

Row | response | Variant
6 | 96% | chain 1 D170G V171S N172S Q174G

Same assay, conditions: with GST-tagged Sec9 C-terminal SNARE domain (a.a. 414–651) [yeast]; time point 170 min; read off a plot

Row | response | Variant
7 | 96% | chain 1 D170G V171S N172S Q174G

Same assay, conditions: with GST-tagged Sec9 C-terminal SNARE domain (a.a. 414–651) [yeast]; time point 240 min; parent: 100; read off a plot

Row | response | Variant
8 | 100% | chain 1 D170G V171S N172S Q174G

— paper PMC5267525, “Sec3 promotes the initial binary t-SNARE complex assembly and membrane fusion” (Nature Communications, 2017)
